According to paper doi:10.1101/2024.01.05.574393:
pKd: −log10 of the molar value.

Assays:
[1] = target: HSPB1ACD (α-crystallin domain of HSPB1) (human); test: native MS
[2] = target: HSPB5ACD (α-crystallin domain of HSPB5) (human); test: native MS

“HSPB1 C-terminal peptide (cognate peptide of HSPB1ACD)” was tested, and the pKd [1] was > 4.00.
For “HSPB5 C-terminal peptide (cognate peptide of HSPB5ACD)”, the pKd [2] was > 4.00.
